In PMC12192683:

Molecular target: low-density lipoprotein receptor-related protein 1 (LRP1), full-length, purified from human placenta (human) (UniProt Q07954)
Test: SPR; LRP1 amine-coupled to CM5 chip; RBD or alkylated RBD flowed in HBS-P with 1 mM CaCl2, 25 C; equilibrium analysis (Req against concentration, single class of sites) and single injections of 1 uM

Sequence of low-density lipoprotein receptor-related protein 1 (LRP1), full-length, purified from human placenta (human) (Q07954 20-4544): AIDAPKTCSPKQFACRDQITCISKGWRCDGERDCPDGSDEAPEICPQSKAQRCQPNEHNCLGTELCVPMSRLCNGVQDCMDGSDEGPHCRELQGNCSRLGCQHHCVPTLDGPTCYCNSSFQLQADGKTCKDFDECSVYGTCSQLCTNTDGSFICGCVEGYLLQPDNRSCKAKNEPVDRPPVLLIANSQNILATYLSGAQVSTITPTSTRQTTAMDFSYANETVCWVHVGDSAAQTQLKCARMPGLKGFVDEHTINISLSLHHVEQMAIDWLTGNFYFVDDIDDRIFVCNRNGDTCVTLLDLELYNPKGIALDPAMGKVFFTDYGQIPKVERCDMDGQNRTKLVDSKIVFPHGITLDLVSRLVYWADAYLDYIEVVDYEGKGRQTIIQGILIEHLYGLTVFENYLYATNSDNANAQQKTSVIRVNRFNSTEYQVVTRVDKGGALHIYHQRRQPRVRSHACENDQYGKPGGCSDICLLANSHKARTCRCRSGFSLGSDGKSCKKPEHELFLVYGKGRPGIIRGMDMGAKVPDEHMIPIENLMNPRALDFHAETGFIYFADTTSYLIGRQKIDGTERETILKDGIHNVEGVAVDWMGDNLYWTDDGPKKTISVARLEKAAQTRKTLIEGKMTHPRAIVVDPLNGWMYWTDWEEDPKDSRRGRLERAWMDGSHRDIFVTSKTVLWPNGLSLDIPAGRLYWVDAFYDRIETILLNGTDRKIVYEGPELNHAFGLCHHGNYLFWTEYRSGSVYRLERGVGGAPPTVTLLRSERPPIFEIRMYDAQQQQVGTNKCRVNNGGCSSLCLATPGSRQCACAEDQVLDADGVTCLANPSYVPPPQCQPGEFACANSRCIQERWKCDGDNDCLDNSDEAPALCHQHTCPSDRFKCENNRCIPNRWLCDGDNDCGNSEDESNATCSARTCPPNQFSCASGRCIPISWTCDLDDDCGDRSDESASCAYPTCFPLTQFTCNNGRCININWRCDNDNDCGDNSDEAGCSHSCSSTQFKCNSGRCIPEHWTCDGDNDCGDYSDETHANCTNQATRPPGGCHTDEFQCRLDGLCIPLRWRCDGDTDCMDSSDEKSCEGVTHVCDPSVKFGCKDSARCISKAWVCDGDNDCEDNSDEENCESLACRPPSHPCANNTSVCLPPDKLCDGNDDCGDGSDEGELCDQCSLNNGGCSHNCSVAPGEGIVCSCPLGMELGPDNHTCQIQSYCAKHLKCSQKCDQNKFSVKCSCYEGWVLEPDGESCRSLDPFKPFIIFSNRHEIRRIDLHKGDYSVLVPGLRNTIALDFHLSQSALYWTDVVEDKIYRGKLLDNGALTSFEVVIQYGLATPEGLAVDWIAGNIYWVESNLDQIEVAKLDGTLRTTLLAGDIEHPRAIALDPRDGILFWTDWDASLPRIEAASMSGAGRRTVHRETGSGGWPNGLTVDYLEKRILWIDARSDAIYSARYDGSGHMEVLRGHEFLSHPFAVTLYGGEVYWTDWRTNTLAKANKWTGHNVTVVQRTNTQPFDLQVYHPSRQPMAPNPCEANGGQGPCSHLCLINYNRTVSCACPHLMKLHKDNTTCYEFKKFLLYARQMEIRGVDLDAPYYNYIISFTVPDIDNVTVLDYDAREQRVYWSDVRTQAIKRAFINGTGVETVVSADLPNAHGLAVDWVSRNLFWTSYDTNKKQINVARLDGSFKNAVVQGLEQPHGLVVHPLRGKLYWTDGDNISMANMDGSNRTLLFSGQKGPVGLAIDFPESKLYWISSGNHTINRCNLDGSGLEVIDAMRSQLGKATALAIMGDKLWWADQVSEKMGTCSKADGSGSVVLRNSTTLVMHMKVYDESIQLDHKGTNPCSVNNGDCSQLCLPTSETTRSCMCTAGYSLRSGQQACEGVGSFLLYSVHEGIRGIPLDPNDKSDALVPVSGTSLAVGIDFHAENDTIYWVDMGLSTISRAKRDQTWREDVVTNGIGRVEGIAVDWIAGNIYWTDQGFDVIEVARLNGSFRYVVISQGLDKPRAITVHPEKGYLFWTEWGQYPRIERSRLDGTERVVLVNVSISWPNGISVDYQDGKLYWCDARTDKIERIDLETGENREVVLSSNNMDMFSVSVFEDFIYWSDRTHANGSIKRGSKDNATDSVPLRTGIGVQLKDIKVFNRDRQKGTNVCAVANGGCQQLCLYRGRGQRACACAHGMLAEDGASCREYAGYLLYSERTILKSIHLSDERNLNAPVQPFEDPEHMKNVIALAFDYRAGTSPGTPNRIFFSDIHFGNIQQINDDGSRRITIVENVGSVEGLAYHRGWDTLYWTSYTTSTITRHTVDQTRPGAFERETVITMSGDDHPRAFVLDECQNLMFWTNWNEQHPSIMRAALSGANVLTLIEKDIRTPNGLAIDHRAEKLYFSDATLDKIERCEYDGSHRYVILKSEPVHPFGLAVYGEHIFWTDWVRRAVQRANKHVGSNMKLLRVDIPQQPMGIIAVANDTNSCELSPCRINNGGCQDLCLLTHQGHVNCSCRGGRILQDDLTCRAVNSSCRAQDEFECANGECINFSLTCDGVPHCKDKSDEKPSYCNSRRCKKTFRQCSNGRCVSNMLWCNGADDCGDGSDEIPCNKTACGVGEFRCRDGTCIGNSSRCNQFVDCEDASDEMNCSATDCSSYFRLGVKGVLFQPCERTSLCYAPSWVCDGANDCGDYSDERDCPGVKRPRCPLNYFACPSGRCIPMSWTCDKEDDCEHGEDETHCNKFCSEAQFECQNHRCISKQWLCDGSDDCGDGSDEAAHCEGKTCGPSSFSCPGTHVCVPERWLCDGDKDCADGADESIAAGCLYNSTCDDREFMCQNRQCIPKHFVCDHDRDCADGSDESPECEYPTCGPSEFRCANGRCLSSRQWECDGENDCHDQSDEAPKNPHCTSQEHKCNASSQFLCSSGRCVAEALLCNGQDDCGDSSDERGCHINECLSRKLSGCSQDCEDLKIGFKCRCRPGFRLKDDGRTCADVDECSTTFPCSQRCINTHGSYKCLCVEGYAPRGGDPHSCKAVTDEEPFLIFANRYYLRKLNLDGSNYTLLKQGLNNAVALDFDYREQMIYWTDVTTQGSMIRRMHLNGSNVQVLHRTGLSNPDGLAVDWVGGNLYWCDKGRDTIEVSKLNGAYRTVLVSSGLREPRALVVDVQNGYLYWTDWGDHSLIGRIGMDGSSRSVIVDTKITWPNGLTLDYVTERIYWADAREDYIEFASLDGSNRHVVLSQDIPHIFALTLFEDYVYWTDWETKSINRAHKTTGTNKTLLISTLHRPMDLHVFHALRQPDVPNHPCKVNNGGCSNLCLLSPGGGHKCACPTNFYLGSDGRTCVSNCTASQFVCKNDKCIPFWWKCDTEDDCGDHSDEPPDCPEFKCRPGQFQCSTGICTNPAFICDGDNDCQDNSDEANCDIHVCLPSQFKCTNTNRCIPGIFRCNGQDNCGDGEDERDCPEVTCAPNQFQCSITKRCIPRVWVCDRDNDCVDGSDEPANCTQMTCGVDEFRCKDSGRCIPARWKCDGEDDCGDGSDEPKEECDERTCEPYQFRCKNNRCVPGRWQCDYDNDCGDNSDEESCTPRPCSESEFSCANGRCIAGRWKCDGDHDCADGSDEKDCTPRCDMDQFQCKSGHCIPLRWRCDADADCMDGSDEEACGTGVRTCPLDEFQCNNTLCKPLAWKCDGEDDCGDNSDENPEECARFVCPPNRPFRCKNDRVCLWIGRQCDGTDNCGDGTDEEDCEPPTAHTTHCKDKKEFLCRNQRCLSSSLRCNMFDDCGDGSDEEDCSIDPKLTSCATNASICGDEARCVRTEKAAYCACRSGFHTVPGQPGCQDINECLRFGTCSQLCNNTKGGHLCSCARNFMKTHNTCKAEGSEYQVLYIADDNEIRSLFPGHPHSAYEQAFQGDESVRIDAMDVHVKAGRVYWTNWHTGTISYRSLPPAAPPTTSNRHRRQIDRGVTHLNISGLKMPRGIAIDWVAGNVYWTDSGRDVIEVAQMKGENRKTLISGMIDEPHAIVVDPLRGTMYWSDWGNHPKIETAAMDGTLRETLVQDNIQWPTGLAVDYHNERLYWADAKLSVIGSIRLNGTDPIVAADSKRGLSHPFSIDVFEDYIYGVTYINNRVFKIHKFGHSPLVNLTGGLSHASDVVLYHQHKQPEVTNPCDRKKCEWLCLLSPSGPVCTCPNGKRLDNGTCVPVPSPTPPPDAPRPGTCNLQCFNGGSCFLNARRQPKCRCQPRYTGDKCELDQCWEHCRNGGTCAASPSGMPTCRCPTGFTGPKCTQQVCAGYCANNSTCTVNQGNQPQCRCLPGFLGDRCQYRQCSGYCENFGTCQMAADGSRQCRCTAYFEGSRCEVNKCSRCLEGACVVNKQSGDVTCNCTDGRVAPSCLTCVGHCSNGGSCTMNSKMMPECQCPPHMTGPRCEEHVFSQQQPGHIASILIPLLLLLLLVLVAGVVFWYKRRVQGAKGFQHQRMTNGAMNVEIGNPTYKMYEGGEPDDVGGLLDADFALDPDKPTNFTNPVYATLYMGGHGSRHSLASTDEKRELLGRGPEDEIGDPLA

## SARS-CoV-2 spike protein receptor binding domain (Arg319-Phe541), his tagged (from UniProt P0DTC2 319-541) (domain or fragment)
  Kd: 192 nM
